Assay results as given in patent US20120214165A1.

Biological target: Epithelial cell adhesion molecule (EpCAM) (human) (UniProt P16422)
Test: cell-based or functional assay

Sequence of UniProt P16422 (P16422 24-314 M115T limits assumed): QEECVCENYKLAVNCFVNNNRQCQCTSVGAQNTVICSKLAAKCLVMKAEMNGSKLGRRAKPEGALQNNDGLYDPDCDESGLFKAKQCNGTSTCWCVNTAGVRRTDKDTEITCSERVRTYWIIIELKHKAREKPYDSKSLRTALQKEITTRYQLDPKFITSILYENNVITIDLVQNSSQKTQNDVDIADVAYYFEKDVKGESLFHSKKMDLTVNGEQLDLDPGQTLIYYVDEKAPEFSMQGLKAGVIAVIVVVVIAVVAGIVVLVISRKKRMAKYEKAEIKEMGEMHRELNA

VB4-845 immunotoxin (from UniProt P11439 277-633)
IC50 of inhibition of proliferation, MTT based cell viability assay, ARO cells: 0.7 pM
IC50 of inhibition of proliferation, MTT based cell viability assay, WRO cells: 1 pM
